Experimental data from PMC7840601.

Tests used:
[1] = molecular target: human C3b (CompTech) (human); assay: SPR; 300 RU human C3b amine-coupled on a CM5 chip; FH1-4 WT or variant injected in duplicate at up to 40 uM; Biacore X100, 25 C, 30 ul/min, 10 mM HEPES-buffered saline, 3 mM EDTA, 0.05% surfactant P20; steady-state affinity model
[2] = molecular target: human C3b (CompTech) (human)

Substance | KD as a ratio of the KD of WT FH1-4 [1] [x WT] | cofactor activity for FI-mediated cleavage of C3b on sheep erythrocytes, IC50 as a multiple of WT FH1-4 [2] [x WT] | decay acceleration of the C3 convertase (C3bBb) on sheep erythrocytes, IC50 as a multiple of WT FH1-4 [2] [x WT]
FH1-4 D130N (from UniProt P08603 19-263) (domain or fragment) | 1.44 |  | 
FH1-4 A161S (from UniProt P08603 19-263) (domain or fragment) | 0.97 |  | 
FH1-4 G69E (from UniProt P08603 19-263) (domain or fragment) | 1.2 |  | 
FH1-4 M162V (from UniProt P08603 19-263) (domain or fragment) | 1.23 |  | 
FH1-4 Q81P (from UniProt P08603 19-263) (domain or fragment) |  | 11 | 25.1
FH1-4 S159N (from UniProt P08603 19-263) (domain or fragment) | 1.2 |  | 
